Assay results reported in publication PMC7411048, “ATP-dependent hydroxylation of an unactivated primary carbon with water” (Nature Communications, 2020).

What was measured:
[1] = substrate: C/C(=C\CC[C@@H](C)[C@H]1CC[C@H]2[C@@H]3CCC4=CC(=O)C=C[C@]4(C)[C@H]3CC[C@]12C)CO; assay: UPLC assay of 26-OH-DDO dehydrogenation to DDO-26-al; format: biochemical, Sterolibacterium denitrificans; details: 5 mM K3[Fe(CN)6] as electron acceptor, 50 mM MOPS/KOH pH 7.0, 6% HPCD, 30 °C, anaerobic, enriched enzyme
[2] = substrate: CC(C)=CCC[C@@H](C)[C@H]1CC[C@H]2[C@@H]3CCC4=CC(=O)C=C[C@]4(C)[C@H]3CC[C@]12C; assay: UPLC assay of DDO hydroxylation to 26-OH-DDO; format: biochemical, Sterolibacterium denitrificans; details: 5 mM K3[Fe(CN)6] as electron acceptor, 50 mM MOPS/KOH pH 7.0, 6% HPCD, 30 °C, anaerobic, enriched enzyme

B1: S26DH1 (desmost-1,4-dien-3-one (DDO) hydroxylase; DH5) (Sterolibacterium denitrificans) (protein)
chain: PLQHFKGTTASGRFDLGPRTTPKLGNWQDLYRQRWTWDKVAKGSHGWANCRSACEWDLYVKDGVVVREEQSATYEASEPGIPDFNPRGCQKGACYTEVMYGPSRTTVPLKRVGPRGSGKWEKISWEQALREIAVKTVDAAEKWGTDTIYQDLGPNFDFGASTAGRFKFQFMAGGIFADNWAEIGDLNVGASITVGAAHLGGSADEWFLSDFIVVWMMNPSVTQIPDAHFLYEARYNGTELCVIDPQYSATAIHADQWLPLESGTDAALGLAVARYLLDTGAIDLPYIREQTDLPLLARLDTGRFLRESDLKAGGDEDQLYMWHPQKNAAVPAPGCLKNTTRSLKLDFEPPIDGQWKIKLANGEEVVVVPVGAMLKEHLDPWTFEHAAQVTHLHIDQIRKFAEGWAKAERPMVLSSWGSNRYVHSDLMNRTKMLLLMLKGALGKKGAGYQATGWVDLDGFGNAMQMEKSGMTGRLAVMLNAMPPKELFNAIVDIIKKRKTENDVALEGENNYLRNKLCTSDVVEVNLKSEGYRAALSKEQEGLYPRELSDYYDEAHEKGWAPGLPRKNTPKIFFSGGSNLLRRNNLPQYLKAHIWDQMDCIVDVNPKYSYTGTQADYILPAAGWYEKTGIKYTMSYIPYLHYCDAAVPPLAESKGEWEIYWLLTREMENYAKEKNQPILDGCGRGTIDMKTIHQRYTNQGDLGQHDQDKVTEEILRSESTKGMTVEGLRQTGIAKYTATGKNVQATALNNPDWKGEGVLTTLTRFTVHKEPWPTYSGRISSFIDHPWFIEGHEQFATHKDSPKAGGDYPFIFVSCHARWSIHSTWRDTPMMLRLQRGEPLVYLNPTDAAKIGVKDFEYVEIYNNYGSIRMRLKVTAMVRPGVAYYYHAWEPHQFPNHESYKNLIPGIVQPLHYAGGYGHINHALNRFQPGSAVQDTRIGIKPWTGQATGVKPVVVTAEEAAIAERANQAI
notes: alpha-beta-gamma complex, Mo-cofactor/FeS/heme b; produced in Thauera aromatica K172 with delta-chaperone (SdhD, delta4); enriched by three columns; with Steroid C26 dehydrogenase 1 beta subunit (FeS electron transfer subunit); Steroid C26 dehydrogenase 1 gamma subunit (heme b subunit)
Km [1]: 83 ± 12 µM
Km [2]: 123 ± 25 µM
